Literature values in publication PMC6143783.

Key:
[1] = biological target: GABAA receptor α1 TM3-TM4 loop (Homo sapiens) (UniProt P14867); experiment: ITC
[2] = biological target: GABAA receptor α3 TM3-TM4 loop (Homo sapiens) (UniProt P34903); experiment: ITC
GABAA receptor α3 TM3-TM4 loop (Homo sapiens), sequence (P34903 359-457): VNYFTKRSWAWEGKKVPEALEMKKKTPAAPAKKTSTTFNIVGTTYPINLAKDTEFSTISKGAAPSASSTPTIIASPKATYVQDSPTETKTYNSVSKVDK

gephyrin, sequence (Q03555 whole entry): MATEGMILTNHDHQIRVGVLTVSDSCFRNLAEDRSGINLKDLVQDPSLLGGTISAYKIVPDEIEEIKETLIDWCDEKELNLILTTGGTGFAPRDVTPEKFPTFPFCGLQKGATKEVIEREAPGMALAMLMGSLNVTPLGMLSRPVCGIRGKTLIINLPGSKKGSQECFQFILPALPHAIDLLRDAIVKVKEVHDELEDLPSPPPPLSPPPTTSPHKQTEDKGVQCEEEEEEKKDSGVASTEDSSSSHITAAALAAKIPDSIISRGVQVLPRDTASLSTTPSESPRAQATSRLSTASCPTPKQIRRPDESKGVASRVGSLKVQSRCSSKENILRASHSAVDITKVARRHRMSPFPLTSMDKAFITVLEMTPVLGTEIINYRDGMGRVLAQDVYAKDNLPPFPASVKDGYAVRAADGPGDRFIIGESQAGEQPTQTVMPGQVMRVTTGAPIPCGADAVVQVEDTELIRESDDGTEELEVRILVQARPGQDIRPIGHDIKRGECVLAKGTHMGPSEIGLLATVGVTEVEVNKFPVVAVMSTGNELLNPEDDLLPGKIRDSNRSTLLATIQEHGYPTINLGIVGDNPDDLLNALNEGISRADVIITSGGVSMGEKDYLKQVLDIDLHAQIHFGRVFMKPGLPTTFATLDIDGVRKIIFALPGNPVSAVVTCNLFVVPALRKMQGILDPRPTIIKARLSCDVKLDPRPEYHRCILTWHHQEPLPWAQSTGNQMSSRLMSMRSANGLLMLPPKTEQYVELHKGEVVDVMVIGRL
GABAA receptor α1 TM3-TM4 loop (Homo sapiens), sequence (P14867 334-420): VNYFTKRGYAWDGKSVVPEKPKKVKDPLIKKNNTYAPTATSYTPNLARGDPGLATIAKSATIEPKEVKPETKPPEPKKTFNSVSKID

Kd [1]: 17 µM
Kd [2]: 5.3 µM
Substance: gephyrin (from UniProt Q03555)
